Source: IntAct's records for PubMed 15171681

B1: Protein S100-A1 (Homo sapiens), P23297 (parent)
chain: MGSELETAMETLINVFHAHSGKEGDKYKLSKKELKELLQTELSGFLDAQKDVDAVDKVMKELDENGDGEVDFQEYVVLVAALTVACNNFFWENS
partner: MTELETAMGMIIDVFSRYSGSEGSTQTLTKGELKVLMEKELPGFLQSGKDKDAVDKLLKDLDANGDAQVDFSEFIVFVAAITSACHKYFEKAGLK
B2: Protein S100-P (Homo sapiens), P25815 (parent)
chain: B1 partner

Variants of: B1
Settings: with S100P
In the case of F16A, the “effect of a mutation on the interaction” value is reported as “disrupting interaction”.
L12H;F16A;F72L was tested, and the “effect of a mutation on the interaction” value was “disrupting interaction”.

Variants of: B2
Settings: with S100A1, P23297
For I11A;I12A, the “effect of a mutation on the interaction” value was “disrupting interaction”.
With F71A the “effect of a mutation on the interaction” value was “disrupting interaction”.
F15A was tested, and the “effect of a mutation on the interaction” value was “disrupting interaction”.
In the case of I75G, the “effect of a mutation on the interaction” value is reported as “disrupting interaction”.
For F74V, the “effect of a mutation on the interaction” value was “disrupting interaction”.
With F74G the “effect of a mutation on the interaction” value was “disrupting interaction”.
In the case of I75G;V76G, the “effect of a mutation on the interaction” value is reported as “decreasing interaction”.
